Values of other authors in publication PMC6504839.
Read-outs that look alike come from different tables or passages of the source.

What was measured:
[1] = biological target: integrin αIIbβ3 (Homo sapiens) (UniProt P08514)
[2] = biological target: integrin αIIbβ3 (Homo sapiens) (UniProt P08514); remark: listed apart in the source

Savignygrin (from UniProt Q8MVZ3)
Kd [1]: 60 nM

Disagregin (from UniProt P36235)
Kd [2]: 40 nM
